Source: publication PMC2954370 (Antiviral research, 2010)

B1: HIV-1 envelope glycoprotein gp120 of isolate Bal (natural protein)
chain: not shown
B2: m36 mutant m36.4 (VHH)
VHH: QVQLVQSGGGLVQPGGSLRLSCAASAFDFSDYEMSWVREAPGKGLEWIGEINDSGNTIYNPSLKSRVTISRDNSKNTLYLQMNTLRAEDTAIYYCAIYGGNSGGEYWGQGTLVTVSS
B3: m36 mutant m36.1 (VHH)
VHH: QVQLVQSGGGLVQPGGSLRLSCAASTFDFSDYEMSWVREAPGKGLEWIGEINDSGNTIYNPSLKNRVTISRDNSKNTLYLQMNTLRAEDTAIYYCAIYGGNSGGEYWGQGTLVTVSS
B4: m36 mutant m36.5 (VHH)
VHH: QVQLVQSGGGLVQPGGSLRLSCAASAFDFSDYEMSWVREAPGKGLEWIGEINDSGNTIYNPSLKSRVTISRDNSKNTLYLQMNTLSAEDTAIYYCAIYGGNSGGEYWGQGTLVTVSS

Experiments:
[1] = target: fusion protein of m36 with human IgG1 Fc (human); test: ELISA
[2] = target: B1; test: cell-based or functional assay
[3] = target: T1, HIV-1 Env gp140 of isolate JRFL (HIV-1 isolate JRFL (clade B), UniProt Q75760); test: cell-based or functional assay
[4] = target: B1; test: ELISA
[5] = target: T1, HIV-1 Env gp140 of isolate JRFL; test: ELISA

Binder | binding result [1] | IC50 of neutralisation of HIV-1 Bal Env-pseudotyped virus, HOS-CD4-CCR5 cells [2] [nM] | IC50 of neutralisation of HIV-1 JRFL Env-pseudotyped virus, HOS-CD4-CCR5 cells [3] [nM] | binding result [4] | binding result [5]
B1 | binds | – | – | – | –
B2 | – | 11 | 27 | – | –
B3 | – | – | – | binds | binds
B4 | – | – | – | binds | binds
